Experimental data from patent US20250289873A1 (BROADWING BIO, published 2025).
Numbering of substitutions follows the chain as printed.

T1: human CFHL3-His (ATX-P-58) (human, UniProt Q02985 19-330)
T1 construct: also called human CFHR3 protein; CFHR3; not shown: C-terminal His tag (and linker)
T1 sequence (looked up): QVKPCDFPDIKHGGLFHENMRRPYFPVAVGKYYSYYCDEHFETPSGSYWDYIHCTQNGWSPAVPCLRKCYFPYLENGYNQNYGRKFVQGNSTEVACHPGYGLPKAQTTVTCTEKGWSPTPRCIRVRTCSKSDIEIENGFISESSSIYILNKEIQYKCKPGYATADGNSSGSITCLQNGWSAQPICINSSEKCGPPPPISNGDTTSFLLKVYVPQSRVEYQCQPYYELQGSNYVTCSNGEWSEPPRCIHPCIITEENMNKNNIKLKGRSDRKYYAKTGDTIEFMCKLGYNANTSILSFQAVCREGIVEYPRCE

T2: Human CFHL1-Y402H-His (ATX-P-421) (human)
T2 construct: also called human CFHL-1 (Y402H) protein
T2 chain: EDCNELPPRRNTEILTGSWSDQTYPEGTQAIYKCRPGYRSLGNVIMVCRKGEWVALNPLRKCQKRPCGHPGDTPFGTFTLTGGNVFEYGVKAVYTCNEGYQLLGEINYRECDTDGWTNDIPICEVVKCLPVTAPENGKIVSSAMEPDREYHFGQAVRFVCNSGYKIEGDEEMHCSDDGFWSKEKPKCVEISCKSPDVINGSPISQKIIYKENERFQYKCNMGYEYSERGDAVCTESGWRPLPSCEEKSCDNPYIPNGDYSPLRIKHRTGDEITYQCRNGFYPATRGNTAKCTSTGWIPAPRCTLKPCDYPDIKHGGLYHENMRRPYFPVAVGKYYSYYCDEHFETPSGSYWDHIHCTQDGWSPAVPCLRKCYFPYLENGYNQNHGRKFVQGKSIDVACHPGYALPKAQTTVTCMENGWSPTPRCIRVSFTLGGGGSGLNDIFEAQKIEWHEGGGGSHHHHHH

B1: ATX-P-578 (antibody, human IgG1, kappa, N297A, V domains shown)
VH: EVQLVESGGGLVQPGGSLRLSCAASGFTFSRYSMNWVRQAPGKGLEWVSYISSSSSTIFHADSVKGRFTISRDNAKNSLYLQMNSLRDEDTAVYYCARGNWNYYYMDVWGKGTTVTVSS
VL: DIQMTQSPSTLSASVGDRVTISCRASQSVNSWLAWYQQKPGKAPKLLIYKASNLEGGVPSSFSGSGSGTEFTLTISSLQPDDFATYYCQQYDTSWTFGQGTKVEIKR
B2: ATX-P-576 (antibody, human IgG1, kappa, N297A, V domains shown)
VH: EVQLVESGGGLVQPGRSLRLSCTASGFTFDDYEMHWVRQAPGKGLEWVSDISRNSGRIGYADSVKGRFTISRDNAKNSLYLQMNSLRAEDTALYYCAKDIWGSGYFDYWGQGILVTVSS
VL: DIQMTQSPSSVSASVGDRVTITCRTSQGIRNWLAWYQQKPGKAPKLLIYAASSLQTGGPSRFSGSGSGTDFTLTISSLQPEDFATYYCQQANSFPYTFGQGTKLEIKR
B3: ATX-P-566 (antibody, human IgG1, kappa, N297A, V domains shown)
VH: QVQLQQSGPGLVKPSQTLSLTCAISGDSVSSNSAAWNWIRQSPSRGLEWLGRTYYRSKWFNNYSVSVKSRIAINPDTSKNQFSLQLNSVTPEDTAVYYCARDLGELLDWYFDLWGRGTLVTVSA
VL: EIVLTQSPGTLSLSPGDRATLSCRASQSVRNSYVAWYQQKPGQAPRLLIYGASSRATGIPDRFSGSGSGTDFSLTIGRLEPEDFVVYYCQQYGNSPLTFGGGTKVEIKR
B4: ATX-P-587 (antibody, human IgG1, kappa, N297A, V domains shown)
VH: QVQLQQSGPGLVKPSQTLSLTCAISGDSVSSNSAAWNWIRQSPSRGLEWLGKTYYRSKWYNYYALSVKSRITINPDTSKNQFSLHLNSVTPEDTAVYYCARDGDYYLPSPFDLWGHGTMVTVSS
VL: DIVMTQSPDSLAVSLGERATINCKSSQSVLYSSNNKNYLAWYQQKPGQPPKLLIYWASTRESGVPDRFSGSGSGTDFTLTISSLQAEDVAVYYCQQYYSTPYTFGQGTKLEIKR
B5: ATX-P-563 (antibody, human IgG1, kappa, N297A, V domains shown)
VH: QVQLQESGPGLMKPSETLSLTCTVSGGSISSHYWSWIRQPPGKGLEWIGYIFYSGNINYNPSLKSRVTISVDTSKNQFSLKLRSVTTADTAVYYCARDRGGSYSYHFDCWGQGTLVTVSS
VL: DIQMTQSPSSVSASVGDRVTITCRASQSFAGWLAWYQQKPGKAPKLLIYAASTLQSGVPSRFSGSGSGTDFTLTISSLQPEDFATYYCQQANSFPLTFGGGTKVEIKR
B6: ATX-P-583 (antibody, human IgG1, kappa, N297A, V domains shown)
VH: QVQLVQSGAEVKKPGASVKVSCKASGYTFTTYGISWVRQAPGQGLEWMGWISAYSGNTHYAQSLQDRVTMTTDTSTSTAYMEVRSLRSDDTAVYYCAKDEGYCSSTGCLNLFDPWGQGTLVTVSS
VL: DIQMTQSPSSLSASVGDRVTITCRASQNIGSYLNWYQQKPGNAPKLLIYATSTLQSGVPSRFSGSGSGTDFTLIISSLHPEDFTVYYCQQSFIIPFTFGPGTKVDIKR
B7: ATX-P-568 (antibody, human IgG1, kappa, N297A, V domains shown)
VH: EVQLVESGGGLVQPGGSLRLSCAASGFPFSSYVMSWVRQAPGKGLEWVSVISVSGGSTFYADSVRGRFTISRDNSKNTLYLQVYSLRAEDTAVYYCAKDGLAVAGFDHWGQGTLVTVSS
VL: DIQMTQSPSTLSASVGDRVTITCRASQSISTWLAWYQQKPGKAPKLLIHKASGLESGVPSRFSGSGSGTEFTLTISSLQPDDFATYYCQQYNSFSLIFGGGTRVEIKR
B8: ATX-P-577 (antibody, human IgG1, kappa, N297A, V domains shown)
VH: QVQLQESGPGLVKPSGTLSLTCAVSGGSISSSNWWTWVRQPPGKGLEWIGETYHDGSTNYNPSLKSRVTISVDKSKNQFSLKLSSVTAADTAVYYCLEFYFDYWGQGTLVTVSS
VL: DIQMTQSPSSLSASVGDRVTITCRASQDIRNDLGWYQQKPGKVPKRLIYAASSLQSGVPSRFSGSGSGTEFTLTISSLQPEDFASYYCLQYNNYPFTLGPGTKVDIKR
B9: ATX-P-579 (antibody, human IgG1, kappa, N297A, V domains shown)
VH: QVQLQESGPGLVKPSGTLSLTCAVSGASISTSNWWTWVRQPPGKGLEWIGEIYHDGSTNYSPSLQSRVTISVDKSKNQFSLTLTSVTAADTAIYYCGDFYIDVWGNGTTVTVSS
VL: B8 VL with D28G, N31K, V43A, A50T, S53T, S85T, L98F
B10: ATX-P-580 (antibody, human IgG1, kappa, N297A, V domains shown)
VH: B8 VH with S31T, N33D, T52I, D55S, L97A, E98D, F99W, Y103L, Q106R
VL: B8 VL with D28G, V43A, T74A, S85T, Q90H, Y91F, N93S, L98F
B11: ATX-P-562 (antibody, human IgG1, kappa, N297A, V domains shown)
VH: QVQLQQSGPGLVKSSQTLSLTCAISGDTVSSNSAAWNWIRQSPSRGLEWLGRTFYRSRWSAAYAASVSSRITINPDTSKNQFSLQLTSVTPADTAVYYCAREGVGSSTGFDYWGQGTLVTVSS
VL: DIQMTQSPSSVSASIGDRVTITCRASKGISIWLAWYQQKPGKAPKVLISAASSLQSGAPSRFSGSGSGTDFTLTISSLQPEDFATYYCQQANSFPPTFGQGTKVEIKR
B12: ATX-P-573 (antibody, human IgG1, kappa, N297A, V domains shown)
VH: QVQLQQSGPGLVKPSQTLSLTCAISGDSVSSNSAAWNWIRQSPSRGLEWLGRTYYRSKLYSDYAVSVKSRITINPDTSRNQFSLQLNSVTPEDTAVYYCAREGGYTYGYDYWGQGTLVTVSS
VL: B11 VL with I15V, K27Q, I31S, S49Y, A58V, Q100P, E105D
B13: ATX-P-574 (antibody, human IgG1, kappa, N297A, V domains shown)
VH: EVQLVESGGGLVQRGGSLRLSCVASGFTFSSYAMSWVRQAPGKGLEWVSVISGSGGTTYYADSVKGRFTISRDDSKKTLYLQMNSLRAEDTAVYYCAKRGDYGDYMDVWGKGTTVTVSS
VL: B11 VL with I15V, K27Q, S30T, I31T, V46L, S49F, A50G, Q55E, A58V, P96W
B14: ATX-P-564 (antibody, human IgG1, kappa, N297A, V domains shown)
VH: EVQLVESGGGLVKPGGSLRLSCAASGFTFSSYTMNWVRQAPGKGLEWVSSISSSSSYTYYADSVRGRFTISRDNAKNSLYLQMSSLRAEDTAVYYCARSASIAAGMDVWGKGTTVTVSS
VL: DIVMTQSPLSLPVTPGEPASISCRSSQSLLHSTGYNFLDWYLQKPGLSPQLLIYLASNRASGVPDRFSGSGSGTDFTLKISRVEAEDVGVYYCMQALQTPYTFGQGTKLEIKR
B15: ATX-P-565 (antibody, human IgG1, kappa, N297A, V domains shown)
VH: QVQLVESGGGVVQPGRSLRLSCAASGFTFNTYGIHWVRQAPGKGLEWVAVIWHDGSSKNYVDSVTGRFTISRDNSKNTVYLQMNSLRAEDTAVYYCARRGNWNYGFYYYYMDVWGKGTTVTVSS
VL: B14 VL with S28R, T33S, F37Y, L47Q, A56G, N58S, A96G, Y101P, L109V

molecular target: T1, human CFHL3-His (ATX-P-58); assay: Carterra LSA biosensor, mAb printed on chip, human CFHL3-His at 550 nM
Protocol: (§1) Experiments were also conducted to determine the reactivity of the CFHR4 antibodies with the human CFHR3 protein (FIG. 9). The binding experiments were performed on Carterra LSA with a running buffer of PBS pH 7.40, 1% BSA, 0.05% Tween20. Antibodies were covalently printed on an HC30M chip. Chip was activated with 33 mM s-NHS and 133 mM EDC in 100 mM MES pH 5.5 for 7 minutes. Antibodies at 10 mg/ml in acetic acid buffer pH 4.5 were used for printing for 10 min. The printed chip was then quenched with 1 M ethanolamine pH 8.5 for 7 min. For the reactivity assay, ATX-P-58, human CFHL3-His, at 550 nM was tested with 5 min association followed by 15 min dissociation. Results were processed and analyzed in Carterra LSA Kinetics Software. The data was referenced with the interstitial reference spots and double-referenced to a buffer cycle, and then the responses (nm) after association were reported. Isotype control was used to determine the cutoff response for positive binding.

Binding result, binds:
B1
B2
B3
B4
B5
B6
B7
B8
B9
B10
B11
B12
B13
B14
B15

Molecular target: T2, Human CFHL1-Y402H-His (ATX-P-421)
Assay: Carterra LSA biosensor, mAb printed on chip, human CFHL1-Y402H-His at 380 nM
Protocol: as §1, with “CFHL-1 (Y402H)” for “CFHR3”, “10).” for “9).”, “ATX-P-421,” for “ATX-P-58,”, “CFHL1-Y402H-His,” for “CFHL3-His,”, “380” for “550”

Binding result, binds:
B1
B2
B3
B4
B5
B6
B7
B8
B9
B10
B11
B12
B13
B14
B15
